The values that follow come from the supplement of paper PMC12042874.

± gives the uncertainty stated by the source.

This data set is described as follows: amyloid nucleation score (Sup35N fusion, yeast selection) (log enrichment); library NNK3; higher = more nucleation; inactive = no reads after selection. The gist of the method: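 Using DiMSum, nucleation scores were taken as the log enrichment of output over input reads, centred on the mode score of non-aggregating sequences. The input and output reads came from Illumina sequencing of plasmid inserts, with sequences under 100 input reads excluded. The yeast were psi-negative, expressed Sup35N fused to peptides of 20 random codons, were induced with 100 μM copper sulfate for 24 hours, and were grown 7 days at 30°C on medium lacking adenine and uracil.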
With YKRLVSLNVEWALRK, the amyloid nucleation score entry was “inactive”.
The same measure for LTWYREDLYVRSWSCYWDQR: “inactive”; for CTSCILYFLLIYYHYNSS: “inactive”.
The same measure for CATIILSCILSL: 1.14 ± 0.13.
As for SFSVSKAWGWMYSIQRCCLC, the entry is “inactive”; as for CRFKGCWYSRTLRRRRSVIV, “inactive”.
Turning to QVLCWFISTADLLLAK, the amyloid nucleation score entry was “inactive”.
The same measure for YLYFV: “inactive”; for CHFIRGESSRTKLGLEHTN: “inactive”.
As for IIELYT, the entry is “inactive”.
The same measure for FLRMHVRGFDTFRARQ: “inactive”; for FSSRKSLCGLDLKECFTSVE: “inactive”; for ECLMDGSTAFSMMFFYNYML: “inactive”.
For the substance LFEVSS, the amyloid nucleation score result is “inactive”.
The same measure for SVVLIMKICTVEGYDPQLLF: “inactive”; for HRSRISTWMWG: “inactive”.
The same measure for RMGWSTGILCRVDTLFITML: “inactive”.
The same measure for RFNFNFFRSRSHLSVFTQFG: “inactive”.
As for TRFARA, the amyloid nucleation score entry was “inactive”.
The same measure for GQPGQ: “inactive”; for AWVHNSVRRHSSPSPRLGGM: “inactive”.
The same measure for GVYPSGCYLNVRFWSLVHGA: “inactive”.
As for VVSDTKYVVVEWYTCGQSSD, the entry is “inactive”; as for IRRSLAR, “inactive”; as for ANKPWVNDIFPT, “inactive”.
As for CELVAQFPKFFAFYIFYDDT, the amyloid nucleation score result was “inactive”.
As for NRVED, the amyloid nucleation score entry is “inactive”.
As for HQSNFGDMSLVSNGSFRKAK, the entry is “inactive”; as for CLNNVLLASPPNCAGNL, “inactive”; as for IIPYCRS, “inactive”.
Turning to IPYSTHRINSILISLSWFCV, the amyloid nucleation score came out at 0.691 ± 0.2.
For the substance MSGTLCPSHNILETDCRVQV, the amyloid nucleation score result is “inactive”.
The same measure for RGLHLGSSTWIPTAREC: 0.678 ± 0.19; for KTRERGLSTGDGTQNEIAGY: -0.123 ± 0.51.
As for KRCWLWWIKVCTKMLLEVSS, the entry is “inactive”.
With DIIYTFHHAVNRLNKIFSV, the amyloid nucleation score result was “inactive”.
The same measure for STGFGE: “inactive”; for YINQWCTCVT: “inactive”; for GLTVVSE: “inactive”.
Consider RIVSVFLDNEQISRNGAVSS, for which the amyloid nucleation score was -0.425 ± 0.59.
As for NSSSNE, the figure is 1.01 ± 0.22; as for RTDLWRIGDVANWIYALP, “inactive”; as for LVCFPGTSFAGVCDW, “inactive”.
As for DFMWLKGLNPSTLSLPWD, the entry is “inactive”; as for SLVNGAWLAVMNMSRCLWIF, “inactive”.
STIVGGSLCFPIASVTFNSC: the amyloid nucleation score came to 2.2 ± 0.079.
The same measure for KWVCYHSWDYTCYHGEWYPS: “inactive”; for PYGLLQFNG: “inactive”; for TLNGFLNGYEYQ: “inactive”.
Regarding RCSCLTFVVSTK, the amyloid nucleation score was found to be 0.424 ± 0.75.
As to WGKTRFWRVSSWLLNDVWRV, the amyloid nucleation score entry is “inactive”.
As for VLYVRNLMLYGNLCKALLAF, the amyloid nucleation score entry was “inactive”.
Turning to VLTYTFRPSVSCSNKSKGSA, the amyloid nucleation score was determined as 0.107 ± 0.35.
The same measure for FLTAKKSEFERTLEFRLWWC: “inactive”; for TRTHPDVNRAKMDVKGDAKI: “inactive”.
